Reference: PMC8699698, “Oligomeric States and Hydrodynamic Properties of Lysyl Oxidase-Like 2” (Biomolecules, 2021)
Where “and” joins values, the source holds several entries; their conditions need not be identical. Equal values may be shown once.

T1: full-length lysyl oxidase-like 2 (fl-LOXL2), wild type, Q9Y4K0
T1 chain: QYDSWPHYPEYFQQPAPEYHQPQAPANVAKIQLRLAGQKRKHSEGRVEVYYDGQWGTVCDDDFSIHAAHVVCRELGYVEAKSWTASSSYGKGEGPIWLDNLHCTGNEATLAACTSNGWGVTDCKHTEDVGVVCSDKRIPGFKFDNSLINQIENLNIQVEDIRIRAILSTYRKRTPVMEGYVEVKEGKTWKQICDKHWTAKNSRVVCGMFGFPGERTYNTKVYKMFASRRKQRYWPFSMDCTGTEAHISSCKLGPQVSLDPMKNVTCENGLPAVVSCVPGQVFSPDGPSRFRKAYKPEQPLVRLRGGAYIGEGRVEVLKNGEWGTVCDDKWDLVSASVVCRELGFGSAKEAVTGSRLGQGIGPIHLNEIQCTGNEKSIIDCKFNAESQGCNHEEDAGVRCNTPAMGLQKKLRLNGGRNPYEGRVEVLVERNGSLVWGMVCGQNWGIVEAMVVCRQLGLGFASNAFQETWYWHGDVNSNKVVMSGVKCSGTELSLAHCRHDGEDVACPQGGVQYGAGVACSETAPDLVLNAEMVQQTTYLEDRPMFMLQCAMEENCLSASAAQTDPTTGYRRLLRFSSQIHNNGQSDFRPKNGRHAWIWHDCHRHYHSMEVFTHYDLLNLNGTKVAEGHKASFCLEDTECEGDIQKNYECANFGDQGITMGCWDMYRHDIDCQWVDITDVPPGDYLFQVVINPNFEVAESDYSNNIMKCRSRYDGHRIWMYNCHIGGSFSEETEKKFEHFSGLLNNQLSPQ


Tests used:
[1] = target: T1, full-length lysyl oxidase-like 2 …; assay: SEC-MALS; Superdex 200 10/300, 50 mM Tris pH 8.0, 150 mM NaCl, 0.01% sodium azide; fl-LOXL2 at concentrations from 0.08 to 1.6 uM; self-association; settings: remark: other sources report otherwise
[2] = target: T1, full-length lysyl oxidase-like 2 …; assay: native gel or EMSA; Native PAGE, NativePAGE 4 to 16% Bis-Tris gels, 125 V for 2 h; self-association of purified LOXL2 forms; settings: remark: other sources report otherwise
[3] = target: T1, full-length lysyl oxidase-like 2 …; assay: AUC; Sedimentation velocity, 20 °C, 40,000 RPM, 50 mM HEPES pH 8.0, fl-LOXL2 at 0.88, 0.30 and 0.088 mg/mL, c(s) model of SEDFIT; self-association; settings: remark: other sources report otherwise
[4] = target: the molecule itself; assay: native gel or EMSA; Native PAGE, NativePAGE 4 to 16% Bis-Tris gels, 125 V for 2 h; self-association of purified LOXL2 forms

| Binder | stoichiometry N [1] | stoichiometry N [2] | percent of dimer [3] | percent of monomer [3] | percent of tetramer and pentamer together [3] | stoichiometry N [3] | stoichiometry N [4] |
| --- | --- | --- | --- | --- | --- | --- | --- |
| full-length lysyl oxidase-like 2 (fl-LOXL2), wild type, Q9Y4K0 26-774 (enzyme, here or on the partner: lysine tyrosylquinone (LTQ) cofactor (precursor residues Lys653 and Tyr689), Cu2+ bound; N-glycans (N-glycosylation sites Asn288, Asn455, Asn644); lysine tyrosylquinone (LTQ) cofactor (precursor residues Lys653 and Tyr689), Cu2+ bound; N-glycans (N-glycosylation sites Asn288, Asn455, Asn644)) QYDSWPHYPEYFQQPAPEYHQPQAPANVAKIQLRLAGQKRKHSEGRVEVYYDGQWGTVCDDDFSIHAAHVVCRELGYVEAKSWTASSSYGKGEGPIWLDNLHCTGNEATLAACTSNGWGVTDCKHTEDVGVVCSDKRIPGFKFDNSLINQIENLNIQVEDIRIRAILSTYRKRTPVMEGYVEVKEGKTWKQICDKHWTAKNSRVVCGMFGFPGERTYNTKVYKMFASRRKQRYWPFSMDCTGTEAHISSCKLGPQVSLDPMKNVTCENGLPAVVSCVPGQVFSPDGPSRFRKAYKPEQPLVRLRGGAYIGEGRVEVLKNGEWGTVCDDKWDLVSASVVCRELGFGSAKEAVTGSRLGQGIGPIHLNEIQCTGNEKSIIDCKFNAESQGCNHEEDAGVRCNTPAMGLQKKLRLNGGRNPYEGRVEVLVERNGSLVWGMVCGQNWGIVEAMVVCRQLGLGFASNAFQETWYWHGDVNSNKVVMSGVKCSGTELSLAHCRHDGEDVACPQGGVQYGAGVACSETAPDLVLNAEMVQQTTYLEDRPMFMLQCAMEENCLSASAAQTDPTTGYRRLLRFSSQIHNNGQSDFRPKNGRHAWIWHDCHRHYHSMEVFTHYDLLNLNGTKVAEGHKASFCLEDTECEGDIQKNYECANFGDQGITMGCWDMYRHDIDCQWVDITDVPPGDYLFQVVINPNFEVAESDYSNNIMKCRSRYDGHRIWMYNCHIGGSFSEETEKKFEHFSGLLNNQLSPQ | 2 and 4 | 2 and 4 | 11.6% | 83.6% | 4.7% | 4 and 5 and 2 |  |
| K317R-LOXL2, full-length form (furin-cleavage site engineered) (enzyme, UniProt Q9Y4K0 26-774, looked up, Lysyl oxidase-like 2 (LOXL2), K317R mutant, the full-length species in the K317R-LOXL2 lane of the native gel; the bands at ~175 and ~340 kDa are ascribed to its full-length form; also called K317R mutant) QYDSWPHYPEYFQQPAPEYHQPQAPANVAKIQLRLAGQKRKHSEGRVEVYYDGQWGTVCDDDFSIHAAHVVCRELGYVEAKSWTASSSYGKGEGPIWLDNLHCTGNEATLAACTSNGWGVTDCKHTEDVGVVCSDKRIPGFKFDNSLINQIENLNIQVEDIRIRAILSTYRKRTPVMEGYVEVKEGKTWKQICDKHWTAKNSRVVCGMFGFPGERTYNTKVYKMFASRRKQRYWPFSMDCTGTEAHISSCKLGPQVSLDPMKNVTCENGLPAVVSCVPGQVFSPDGPSRFRRAYKPEQPLVRLRGGAYIGEGRVEVLKNGEWGTVCDDKWDLVSASVVCRELGFGSAKEAVTGSRLGQGIGPIHLNEIQCTGNEKSIIDCKFNAESQGCNHEEDAGVRCNTPAMGLQKKLRLNGGRNPYEGRVEVLVERNGSLVWGMVCGQNWGIVEAMVVCRQLGLGFASNAFQETWYWHGDVNSNKVVMSGVKCSGTELSLAHCRHDGEDVACPQGGVQYGAGVACSETAPDLVLNAEMVQQTTYLEDRPMFMLQCAMEENCLSASAAQTDPTTGYRRLLRFSSQIHNNGQSDFRPKNGRHAWIWHDCHRHYHSMEVFTHYDLLNLNGTKVAEGHKASFCLEDTECEGDIQKNYECANFGDQGITMGCWDMYRHDIDCQWVDITDVPPGDYLFQVVINPNFEVAESDYSNNIMKCRSRYDGHRIWMYNCHIGGSFSEETEKKFEHFSGLLNNQLSPQ |  |  |  |  |  |  | 2 and 4 |
| R314A/R316A/K317Q-LOXL2 (AAQ-LOXL2, a PACE4 cleavage site null mutant), full length (enzyme, UniProt Q9Y4K0 26-774, looked up, Lysyl oxidase-like 2 (LOXL2), full-length form with the PACE4 cleavage site mutated (text: R314A/R316A/K317Q); Secreted protein; also called R315A/R316A/K317Q mutant form of LOXL2) QYDSWPHYPEYFQQPAPEYHQPQAPANVAKIQLRLAGQKRKHSEGRVEVYYDGQWGTVCDDDFSIHAAHVVCRELGYVEAKSWTASSSYGKGEGPIWLDNLHCTGNEATLAACTSNGWGVTDCKHTEDVGVVCSDKRIPGFKFDNSLINQIENLNIQVEDIRIRAILSTYRKRTPVMEGYVEVKEGKTWKQICDKHWTAKNSRVVCGMFGFPGERTYNTKVYKMFASRRKQRYWPFSMDCTGTEAHISSCKLGPQVSLDPMKNVTCENGLPAVVSCVPGQVFSPDGPSAFAQAYKPEQPLVRLRGGAYIGEGRVEVLKNGEWGTVCDDKWDLVSASVVCRELGFGSAKEAVTGSRLGQGIGPIHLNEIQCTGNEKSIIDCKFNAESQGCNHEEDAGVRCNTPAMGLQKKLRLNGGRNPYEGRVEVLVERNGSLVWGMVCGQNWGIVEAMVVCRQLGLGFASNAFQETWYWHGDVNSNKVVMSGVKCSGTELSLAHCRHDGEDVACPQGGVQYGAGVACSETAPDLVLNAEMVQQTTYLEDRPMFMLQCAMEENCLSASAAQTDPTTGYRRLLRFSSQIHNNGQSDFRPKNGRHAWIWHDCHRHYHSMEVFTHYDLLNLNGTKVAEGHKASFCLEDTECEGDIQKNYECANFGDQGITMGCWDMYRHDIDCQWVDITDVPPGDYLFQVVINPNFEVAESDYSNNIMKCRSRYDGHRIWMYNCHIGGSFSEETEKKFEHFSGLLNNQLSPQ |  |  |  |  |  |  | 2 and 4 |
